Data published in PMC4117790, “HRAS is silenced by two neighboring G-quadruplexes and activated by MAZ, a zinc-finger transcription factor with DNA unfolding property”.

Tests used:
MAZ-GST [1] = target: T1, MAZ-GST (UniProt P56270 1-477); test: double-filter binding; 100 mM KCl, 50 uM Zn acetate; Hill n = 1.6 ± 0.3; EMSA/filter: 20 mM Tris-HCl pH 8, 8% glycerol, 100 uM MgCl2, 50 uM Zn acetate, 1 mM DTT, 2.5 ng/ul poly dIdC, 1 mM Na3VO4, 5 mM NaF, KCl as stated (100 mM for filter binding); EMSA gel 20 C, filter 4 C 30 min; FRET: 50 mM Tris-HCl pH 7.4, 50 uM Zn acetate, 50 mM KCl, 37 C; conditions: protein: recombinant; tags: GST; label: 32P; antiparallel intramolecular G4
T1 sequence: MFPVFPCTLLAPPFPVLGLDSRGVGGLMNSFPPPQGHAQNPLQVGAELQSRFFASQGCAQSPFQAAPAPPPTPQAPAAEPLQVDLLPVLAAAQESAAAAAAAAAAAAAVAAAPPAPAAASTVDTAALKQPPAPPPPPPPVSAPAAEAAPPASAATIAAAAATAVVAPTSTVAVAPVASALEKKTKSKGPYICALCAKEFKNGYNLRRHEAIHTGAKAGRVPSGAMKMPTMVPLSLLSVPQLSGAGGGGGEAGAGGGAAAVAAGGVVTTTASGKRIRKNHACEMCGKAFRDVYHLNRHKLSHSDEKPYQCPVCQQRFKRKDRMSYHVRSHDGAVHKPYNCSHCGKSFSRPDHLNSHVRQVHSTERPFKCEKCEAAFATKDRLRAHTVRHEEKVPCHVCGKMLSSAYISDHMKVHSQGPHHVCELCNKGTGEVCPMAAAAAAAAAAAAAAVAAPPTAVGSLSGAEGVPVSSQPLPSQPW

MAZ-GST [2] = target: T1, MAZ-GST; test: double-filter binding; 100 mM KCl, 50 uM Zn acetate; Hill n = 1.4 ± 0.2; EMSA/filter: 20 mM Tris-HCl pH 8, 8% glycerol, 100 uM MgCl2, 50 uM Zn acetate, 1 mM DTT, 2.5 ng/ul poly dIdC, 1 mM Na3VO4, 5 mM NaF, KCl as stated (100 mM for filter binding); EMSA gel 20 C, filter 4 C 30 min; FRET: 50 mM Tris-HCl pH 7.4, 50 uM Zn acetate, 50 mM KCl, 37 C; conditions: protein: recombinant; tags: GST; label: 32P; parallel intramolecular G4

Binder	Kd (MAZ-GST [1]) [nM]	Kd (MAZ-GST [2]) [nM]
TCGGGTTGCGGGCGCAGGGCACGGGCG (structured_DNA) [hras-1 quadruplex]	504 ± 84	–
CGGGGCGGGGCGGGGGCGGGGGCG (structured_DNA) [hras-2 quadruplex]	–	207 ± 12
